Data taken from PMC5589798, “Alpha subunit-dependent glycine receptor clustering and regulation of synaptic receptor numbers” (Scientific Reports, 2017).

Experiments:
[1] = molecular target: endogenous α subunits of spinal cord neurons; assay: PALM-based single molecule counting; fixed lentivirus-infected spinal cord neurons; bursts of Dendra2 detections counted in 120 nm clusters in sparse areas of the extrasynaptic plasma membrane, binomial fit
[2] = molecular target: the molecule itself; assay: PALM-based single molecule counting; fixed COS-7 cells expressing mEos2-gephyrin; cluster diameter 150 nm, burst length < 60 s, binomial fit
[3] = molecular target: T1, endogenous extrasynaptic GlyRs (labelled by QDs on endogenous GlyRα1) (mouse (endogenous in spinal cord …, UniProt Q64018 29-457; P48168 23-496); assay: PALM-based single molecule counting at QD-labelled receptors; fixed mouse spinal cord neurons; endogenous GlyRα1 labelled with mAb2b and Fab'-QD605, mEos2-gephyrin bursts counted at the QD sites in the extrasynaptic membrane; conditions: partners not purified
T1 construct: endogenous glycine receptor beta subunit of mouse spinal cord neurons; the discussion calls extrasynaptic GlyRs α3:β2 heteromers; Only the α1 subunit was labelled; also called endogenous GlyRs; receptor complexes; source: endogenous, mouse spinal cord neurons, fixed cells; copies: 3 + 2
T1 sequence (P48168 23-496, one chain of several): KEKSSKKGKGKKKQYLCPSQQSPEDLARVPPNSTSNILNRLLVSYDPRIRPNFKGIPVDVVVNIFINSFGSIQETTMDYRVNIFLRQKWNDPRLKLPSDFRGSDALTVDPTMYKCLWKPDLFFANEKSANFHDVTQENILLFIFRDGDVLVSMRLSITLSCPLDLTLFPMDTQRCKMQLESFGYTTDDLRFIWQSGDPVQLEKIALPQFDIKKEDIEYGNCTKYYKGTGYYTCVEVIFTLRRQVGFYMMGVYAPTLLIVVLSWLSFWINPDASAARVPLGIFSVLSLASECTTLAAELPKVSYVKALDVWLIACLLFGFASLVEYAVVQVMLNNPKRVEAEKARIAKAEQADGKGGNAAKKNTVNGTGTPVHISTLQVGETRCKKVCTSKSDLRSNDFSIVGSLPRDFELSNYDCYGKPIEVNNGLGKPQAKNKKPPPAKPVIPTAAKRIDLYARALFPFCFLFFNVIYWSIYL

[4] = molecular target: T2, untagged GlyRβ (UniProt P48167 23-497); assay: PALM-based single molecule counting; fixed transfected COS-7 cells; bursts of Dendra2 detections counted in 120 nm clusters, binomial fit; Dendra2-GlyR subunits alone or with untagged subunits; conditions: partners not purified
T2 construct: glycine receptor beta subunit, untagged; also called untagged β subunits; non-fluorescent subunits; source: COS-7, transfected, in cells
T2 sequence (P48167 23-497): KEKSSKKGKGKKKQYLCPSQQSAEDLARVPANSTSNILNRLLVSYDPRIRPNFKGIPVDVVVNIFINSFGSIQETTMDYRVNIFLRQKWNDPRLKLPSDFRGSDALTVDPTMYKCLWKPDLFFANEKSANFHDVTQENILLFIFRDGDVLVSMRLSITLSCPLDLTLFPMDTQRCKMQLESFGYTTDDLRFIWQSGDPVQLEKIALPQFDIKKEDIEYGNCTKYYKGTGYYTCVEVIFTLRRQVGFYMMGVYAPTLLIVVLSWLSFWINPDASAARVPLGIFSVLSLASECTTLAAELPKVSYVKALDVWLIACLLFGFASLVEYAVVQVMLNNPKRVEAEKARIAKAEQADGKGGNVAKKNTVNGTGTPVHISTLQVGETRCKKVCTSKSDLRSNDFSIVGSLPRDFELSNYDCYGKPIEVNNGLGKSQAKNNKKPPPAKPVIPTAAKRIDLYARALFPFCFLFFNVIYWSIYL

[5] = molecular target: T3, endogenous GlyRβ subunits of spinal cord neurons ( (endogenous in rat or mouse …, UniProt P20781 23-496)); assay: PALM-based single molecule counting; fixed lentivirus-infected spinal cord neurons; bursts of Dendra2 detections counted in 120 nm clusters in sparse areas of the extrasynaptic plasma membrane, binomial fit; conditions: partners not purified
T3 construct: endogenous glycine receptor beta subunit of cultured spinal cord neurons; also called endogenous counterparts; source: endogenous, cultured spinal cord neurons, fixed cells
T3 sequence (P20781 23-496): as the sequence (P48168 23-496, one chain of several) above, with P23A counted along it

Molecule: Dendra2-GlyRβ (FU-SP-myc-Dendra2-GlyRβ) (from UniProt P48167-1 23-497) (receptor)
- stoichiometry N [1]: 1.5 α:β (3:2)

B1: mEos2-gephyrin (FU-mEos2-gephyrin) (natural protein, UniProt Q03555 1-768, looked up)
chain: MATEGMILTNHDHQIRVGVLTVSDSCFRNLAEDRSGINLKDLVQDPSLLGGTISAYKIVPDEIEEIKETLIDWCDEKELNLILTTGGTGFAPRDVTPEKFPTFPFCGLQKGATKEVIEREAPGMALAMLMGSLNVTPLGMLSRPVCGIRGKTLIINLPGSKKGSQECFQFILPALPHAIDLLRDAIVKVKEVHDELEDLPSPPPPLSPPPTTSPHKQTEDKGVQCEEEEEEKKDSGVASTEDSSSSHITAAALAAKIPDSIISRGVQVLPRDTASLSTTPSESPRAQATSRLSTASCPTPKQIRRPDESKGVASRVGSLKVQSRCSSKENILRASHSAVDITKVARRHRMSPFPLTSMDKAFITVLEMTPVLGTEIINYRDGMGRVLAQDVYAKDNLPPFPASVKDGYAVRAADGPGDRFIIGESQAGEQPTQTVMPGQVMRVTTGAPIPCGADAVVQVEDTELIRESDDGTEELEVRILVQARPGQDIRPIGHDIKRGECVLAKGTHMGPSEIGLLATVGVTEVEVNKFPVVAVMSTGNELLNPEDDLLPGKIRDSNRSTLLATIQEHGYPTINLGIVGDNPDDLLNALNEGISRADVIITSGGVSMGEKDYLKQVLDIDLHAQIHFGRVFMKPGLPTTFATLDIDGVRKIIFALPGNPVSAVVTCNLFVVPALRKMQGILDPRPTIIKARLSCDVKLDPRPEYHRCILTWHHQEPLPWAQSTGNQMSSRLMSMRSANGLLMLPPKTEQYVELHKGEVVDVMVIGRL
notes: gephyrin; neither species nor isoform is stated; In neurons, endogenous gephyrin is also present and dilutes the detected mEos2-gephyrin; source: COS-7, transfected, in cells; spinal cord neurons, lentivirus infected, in cells
- stoichiometry N [2]: 3
- stoichiometry N [3]: 1 gephyrin trimer per receptor complex

B2: Dendra2-GlyRα3 (FU-SP-myc-Dendra2-GlyRα3L) (receptor, human, UniProt O75311-1 34-464, looked up)
chain: ARSRSAPMSPSDFLDKLMGRTSGYDARIRPNFKGPPVNVTCNIFINSFGSIAETTMDYRVNIFLRQKWNDPRLAYSEYPDDSLDLDPSMLDSIWKPDLFFANEKGANFHEVTTDNKLLRIFKNGNVLYSIRLTLTLSCPMDLKNFPMDVQTCIMQLESFGYTMNDLIFEWQDEAPVQVAEGLTLPQFLLKEEKDLRYCTKHYNTGKFTCIEVRFHLERQMGYYLIQMYIPSLLIVILSWVSFWINMDAAPARVALGITTVLTMTTQSSGSRASLPKVSYVKAIDIWMAVCLLFVFSALLEYAAVNFVSRQHKELLRFRRKRKNKTEAFALEKFYRFSDMDDEVRESRFSFTAYGMGPCLQAKDGMTPKGPNHPVQVMPKSPDEMRKVFIDRAKKIDTISRACFPLAFLIFNIFYWVIYKILRHEDIHQQQD
notes: human glycine receptor alpha-3 subunit, long isoform (α3L); Five copies hold for the homomeric receptor (expressed alone in COS-7); also called homomeric Dendra2-GlyRα3; source: COS-7, transfected (FuGENE 6), in cells; spinal cord neurons, lentivirus infected, in cells; not shown: myc, N-terminal, kept; Dendra2, N-terminal, kept
- stoichiometry N [4]: 3 α3 subunits per complex
- stoichiometry N [5]: 1.5 α:β (3:2)

B3: Dendra2-GlyRα1 (FU-SP-myc-Dendra2-GlyRα1) (receptor, rat, UniProt P07727-1 29-457, looked up)
chain: ARSAPKPMSPSDFLDKLMGRTSGYDARIRPNFKGPPVNVSCNIFINSFGSIAETTMDYRVNIFLRQQWNDPRLAYNEYPDDSLDLDPSMLDSIWKPDLFFANEKGAHFHEITTDNKLLRISRNGNVLYSIRITLTLACPMDLKNFPMDVQTCIMQLESFGYTMNDLIFEWQEQGAVQVADGLTLPQFILKEEKDLRYCTKHYNTGKFTCIEARFHLERQMGYYLIQMYIPSLLIVILSWISFWINMDAAPARVGLGITTVLTMTTQSSGSRASLPKVSYVKAIDIWMAVCLLFVFSALLEYAAVNFVSRQHKELLRFRRKRRHHKSPMLNLFQDDEGGEGRFNFSAYGMGPACLQAKDGISVKGANNNNTTNPAPAPSKSPEEMRKLFIQRAKKIDKISRIGFPMAFLIFNMFYWIIYKIVRREDVHNK
notes: rat glycine receptor alpha-1 subunit, isoform a; Five copies hold for the homomeric receptor (expressed alone in COS-7); also called homomeric Dendra2-GlyRα1; source: COS-7, transfected (FuGENE 6), in cells; spinal cord neurons, lentivirus infected, in cells; not shown: myc, N-terminal, kept; Dendra2, N-terminal, kept
- stoichiometry N [5]: 1.5 α:β (3:2)
